Reference: patent US7943295B2, “Screening and therapeutic method for NSCLC targeting CDCA1-KNTC2 complex” (Oncotherapy Science, Inc., priority 2005, dated 2011)
Entries after “also recorded” stand apart in the source; their conditions may differ. One block for each molecule: values may come before it. Where no end group is shown, it is not given here.

Key:
endogenous KNTC2 = target: T1, endogenous KNTC2 (Homo sapiens, UniProt O14777); assay: Immunoprecipitation of FLAG-tagged CDCA1 deletion-constructs in LC319 cells; assay type: binding; conditions: LC319 cells transfected with deletion-construct
T1 construct: endogenous in cells; host or cells: LC319
T1 sequence (O14777 1-642): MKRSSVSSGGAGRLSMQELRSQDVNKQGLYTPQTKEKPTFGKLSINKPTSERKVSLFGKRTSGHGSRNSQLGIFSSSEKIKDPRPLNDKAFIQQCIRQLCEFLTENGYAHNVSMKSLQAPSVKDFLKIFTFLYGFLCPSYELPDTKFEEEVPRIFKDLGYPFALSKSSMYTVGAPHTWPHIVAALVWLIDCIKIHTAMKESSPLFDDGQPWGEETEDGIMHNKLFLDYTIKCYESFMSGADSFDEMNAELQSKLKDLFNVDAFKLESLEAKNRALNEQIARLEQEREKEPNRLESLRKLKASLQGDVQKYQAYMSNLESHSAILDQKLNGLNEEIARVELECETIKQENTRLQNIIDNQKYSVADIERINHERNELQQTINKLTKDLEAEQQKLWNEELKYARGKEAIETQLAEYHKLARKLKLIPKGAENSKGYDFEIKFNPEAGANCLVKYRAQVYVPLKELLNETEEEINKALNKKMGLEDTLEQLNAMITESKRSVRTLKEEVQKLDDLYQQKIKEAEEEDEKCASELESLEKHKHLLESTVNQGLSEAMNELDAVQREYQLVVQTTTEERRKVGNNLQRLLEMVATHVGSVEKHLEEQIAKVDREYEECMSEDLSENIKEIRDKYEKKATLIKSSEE
Method: (g) Identification of the KNTC2-binding region in CDCA1: Eleven deletion-constructs of CDCA1 (CDCA1 200-464, CDCA1 149-464, CDCA11-348, CDCA11-148, CDCA1 149-306, CDCA1 306-464, CDCA1 319-464, CDCA1 277-416, CDCA1 277-367, CDCA1 319-416, and CDCA1 319-367) were cloned into appropriate sites of C-terminal FLAG-tagged-pCAGGS vector. Cell extracts from lung-cancer cell line LC319, transfected with plasmids expressing eleven deletion-constructs of CDCA1 were pre-cleared by incubation at 4° C. for 1 hour with 100 μl of protein G-agarose beads in final volumes of 2 ml of immunoprecipitation buffer (0.5% NP-40, 50 mM Tris-HCl, 150 mM NaCl) in the presence of proteinase inhibitor. After centrifugation at 1,000 rpm for 5 min at 4° C., the supernatants were incubated at 4° C. with anti-FLAG M2 agarose for 2 hours. After the beads were collected from each sample by centrifugation at 5,000 rpm for 2 min and washed six times with 1 ml of immunoprecipitation buffer, the washed beads were re-suspended in 50 μl of Laemmli sample buffer and boiled for 5 min before the proteins were separated on 10% SDS PAGE gels. Immunoblot was performed using KNTC2 polyclonal antibody (Abcom, Inc.) and anti-FLAG M2 monoclonal antibody respectively (Sigma-Aldrich Co.).

[1] = Mouse model: body weight and food intake; assay type: in vivo, BALB/c nude mice; conditions: intratumoral 0.15 μmol/body/day for 7 weeks, among three treatment groups, data not shown
Method: (n) Mouse model: The animal experiments were conducted according to the institutional and national guidelines for the care and use of laboratory animals, and approved by the institutional animal use committee. 1×10^6 of A549 cells were subcutaneously implanted into the right shoulder of 6-week-old male BALB/c nude mice (nu/nu). Two weeks after the injection, the mice with tumor (30 mm^3 volume on average) were randomized into three groups and intratumorly administered with 11R-CDCA1398-416 peptides (0.15 μmol/body/day), scramble (0.15 μmol/body/day), or PBS (control) for 7 weeks. Tumor volume was measured once a day by using a caliper and applying the data to the formula (volume=0.52×[width]^2×[length]) to calculate the volume of a spheroid.

MRC5 cells = assay: MTT assay, 11R-peptides on normal lung fibroblasts; assay type: cell-based; conditions: normal human lung fibroblast derived MRC5 cells, hardly detectable CDCA1 and KNTC2
Method: (m) Effect of 11R-peptides on lung-cancer cell growth: LC319 and […] and normal human lung fibroblast derived MRC5 cells were incubated with 11R-peptides at the concentration of 5 μM, 10 μM, and 20 μM for seven days. The medium was exchanged every other day at the appropriate concentrations of each peptide and the viability of cells was evaluated by MTT assay at 7 days after the treatment; briefly, cell-counting kit-8 solution (DOJINDO, Kumamoto, Japan) was added to each dish at a concentration of 1/10 volume, and the plates were incubated at 37° C. for additional 4 hours. Absorbance was then measured at 490 nm, and at 630 nm as a reference, with a Microplate Reader 550 (BIO-RAD). Flow-cytometric analysis was performed as described previously (Suzuki, C. et al. Cancer Res. 65, 11314-11325 (2005).).

LC319 cells = assay: MTT assay after transfection of dominant-negative CDCA1 fragment; assay type: cell-based, human; conditions: LC319 transfected with fragment plasmid; P=0.0026 CDCA1 200-464 vs CDCA1 149-306
CDCA1-KNTC2 complex = target: T2, CDCA1-KNTC2 complex (Homo sapiens, UniProt O14777); assay: Immunoprecipitation: suppression of CDCA1-KNTC2 complex formation in LC319 cells; assay type: binding; conditions: LC319 cells co-transfected with CDCA1 1-464 and the fragment
T2 construct: full length) and endogenous KNTC2; expressed in transfected cells; host or cells: LC319
T2 sequence (O14777 1-642): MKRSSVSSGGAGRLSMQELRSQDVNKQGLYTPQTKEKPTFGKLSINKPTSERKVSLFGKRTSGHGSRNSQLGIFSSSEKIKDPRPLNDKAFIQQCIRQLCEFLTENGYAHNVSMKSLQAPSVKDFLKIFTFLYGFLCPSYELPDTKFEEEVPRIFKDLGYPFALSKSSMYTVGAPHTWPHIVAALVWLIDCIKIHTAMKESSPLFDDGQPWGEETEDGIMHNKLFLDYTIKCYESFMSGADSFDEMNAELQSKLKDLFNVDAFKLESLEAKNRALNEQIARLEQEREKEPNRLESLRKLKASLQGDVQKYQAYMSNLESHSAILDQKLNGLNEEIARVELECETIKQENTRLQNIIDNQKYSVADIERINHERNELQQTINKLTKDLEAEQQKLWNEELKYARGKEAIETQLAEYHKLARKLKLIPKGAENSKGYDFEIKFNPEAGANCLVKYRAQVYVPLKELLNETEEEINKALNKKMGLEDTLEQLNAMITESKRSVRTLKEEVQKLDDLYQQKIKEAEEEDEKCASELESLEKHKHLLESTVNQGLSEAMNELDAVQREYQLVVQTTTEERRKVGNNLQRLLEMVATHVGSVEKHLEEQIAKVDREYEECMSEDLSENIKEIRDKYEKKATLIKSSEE
Method: (f) Identification of CDCA1-associated Proteins: Cell extracts from lung-cancer cell line LC319 were pre-cleared by incubation at 4° C. for 1 hour with 50 μl of protein A and G-agarose beads, in final volumes of 2 ml of immunoprecipitation buffer (0.5% NP-40, 50 mM Tris-HCl, 150 mM NaCl) in the presence of proteinase inhibitor. After centrifugation at 1,000 rpm for 5 min at 4° C., the supernatants were incubated at 4° C. with anti-CDCA1 polyclonal antibody, anti-KNTC2 polyclonal antibody, or normal rabbit IgG for 2 hours. […] The nucleotide sequence of each cDNA clone was determined with an ABI Prism 3700 DNA sequencer (Applied Biosystems, Foster City, Calif.), using T3, T7, or synthetic oligonucleotide primers according to the manufacturer's instructions. […]
Since the band of endogenous CDCA1 immunoprecipitated with anti-CDCA1/KNTC2 antibody overlapped with IgG-heavy chain bands, it was difficult to detect the interaction between endogenous CDCA1 and KNTC2. […] Interaction of only CDCA1 1-464 (full length) or CDCA1 200-464 with endogenous KNTC2 was detected by immunoprecipitation using anti-KNTC2 polyclonal antibody (FIG. 5A; left top panel; black and white arrows). […]

Molecule: RRRRRRRRRRRGGGIQKIKLGIQQLKDAAEREK [11R-CDCA1 398-416]
body weight [1]: no difference
food intake [1]: no difference
cell viability (MTT) (MRC5 cells): no off-target effect

B3: CDCA11-148: C-terminal FLAG-tagged deletion-construct of CDCA1 (protein)
chain: METLSFPRYNVAEIVIHIRNKILTGADGKNLTKNDLYPNPKPEVLHMIYMRALQIVYGIRLEHFYMMPVNSEVMYPHLMEGFLPFSNLVTHLDSFLPICRVNDFETADILCPKAKRTSRFLSGIINFIHFREACRETYMEFLWQYKSS
modifications: left off: small tags and cut ends
notes: C-terminal FLAG-tagged deletion-construct of CDCA1
interaction with endogenous KNTC2 (endogenous KNTC2): unable to interact; also recorded: did not retain any appreciable ability to interact

B4: CDCA1 200-464: C-terminal FLAG-tagged deletion-construct of CDCA1 lacking the N-terminal portion; dominant-negative fragment (protein)
chain: QKTIVLQEGNSQKKSNISEKTKRLNELKLLVVSLKEIQESLKTKIVDSPEKLKNYKEKMKDTVQKLKNARQEVVEKYEIYGDSVDCLPSCQLEVQLYQKKIQDLSDNREKLASILKESLNLEDQIESDESELKKLKTEENSFKRLMIVKKEKLATAQFKINKKHEDVKQYKRTVIEDCNKVQEKRGAVYERVTTINQEIQKIKLGIQQLKDAAEREKLKSQEIFLNLKTALEKYHDGIEKAAEDSYAKIDEKTAELKRKMFKMST
modifications: left off: small tags and cut ends
notes: C-terminal FLAG-tagged deletion-construct of CDCA1 lacking the N-terminal portion; dominant-negative fragment
cell viability (MTT) (LC319 cells): significant decreases; also recorded: dominant-negative effect
interaction with endogenous KNTC2 (endogenous KNTC2): strongest affinity; also recorded: Interaction
complex formation between exogenous CDCA1 (full length) and endogenous KNTC2 (CDCA1-KNTC2 complex): reduced complex formation; also recorded: reduction of the complex formation

More lines, main results first:

interaction with endogenous KNTC2 (endogenous KNTC2): unable to interact
Molecule: CDCA1 319-367: C-terminal FLAG-tagged deletion-construct of CDCA1 (NLEDQIESDESELKKLKTEENSFKRLMIVKKEKLATAQFKINKKHEDVK-{FLAG tag})

interaction with endogenous KNTC2 (endogenous KNTC2): unable to interact
B1: CDCA1 149-306: C-terminal FLAG-tagged deletion-construct of CDCA1, served as a control (protein)
chain: ADKMQQLNAAHQEALMKLERLDSVPVEEQEEFKQLSDGIQELQQSLNQDFHQKTIVLQEGNSQKKSNISEKTKRLNELKLLVVSLKEIQESLKTKIVDSPEKLKNYKEKMKDTVQKLKNARQEVVEKYEIYGDSVDCLPSCQLEVQLYQKKIQDLSDN
modifications: left off: small tags and cut ends
notes: C-terminal FLAG-tagged deletion-construct of CDCA1, served as a control
interaction with endogenous KNTC2 (endogenous KNTC2; listed as CDCA1149-306): did not retain any appreciable ability to interact

interaction with endogenous KNTC2 (endogenous KNTC2): unable to interact
B2: CDCA1 277-367: C-terminal FLAG-tagged deletion-construct of CDCA1 (protein)
chain: EIYGDSVDCLPSCQLEVQLYQKKIQDLSDNREKLASILKESLNLEDQIESDESELKKLKTEENSFKRLMIVKKEKLATAQFKINKKHEDVK
modifications: left off: small tags and cut ends
